Drawing on patent WO2001094586A2 (dated 2001), this text covers IL-2 production with immobilized anti-CD3 (10 ng/mL), IL-2 production with TRAP-1 (30 ng/mL) and a 4:1 molar excess of soluble CD8-CD40L fusion protein and Kd for 4 molecules.

In experiment [1] the target is T1, human gp39 (CD40 ligand), cell-surface (human, UniProt P29965 1-261).
T1 construct: whole, on cells; also called CD154; mgp39
T1 sequence (looked up): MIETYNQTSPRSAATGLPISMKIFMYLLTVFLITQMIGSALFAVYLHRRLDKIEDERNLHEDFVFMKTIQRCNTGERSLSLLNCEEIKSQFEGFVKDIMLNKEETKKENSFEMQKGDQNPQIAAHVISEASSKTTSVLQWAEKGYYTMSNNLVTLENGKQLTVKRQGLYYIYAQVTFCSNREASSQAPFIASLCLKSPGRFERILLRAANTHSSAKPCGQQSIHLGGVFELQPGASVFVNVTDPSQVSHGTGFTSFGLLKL
Put plainly: cell-based or functional assay.

The target in experiment [2] is soluble fusion protein of human gp39 (gp39-CD8) (human) (UniProt P29965). Nature of the experiment: cell-based or functional assay.
The target in experiment [3] is T1, human gp39 (CD40 ligand), cell-surface. Nature of the experiment: Scatchard analysis, 125I-labelled antibody on gp39-CHO cells.

The molecule “TRAP-1, commercial murine anti-CD40L antibody” registered an IL-2 production with immobilized anti-CD3 (10 ng/mL) in experiment [1] of more than 4600 pg/mL. This molecule also showed an IL-2 production with TRAP-1 (30 ng/mL) and a 4:1 molar excess of soluble CD8-CD40L fusion protein in experiment [2] of 1500 pg/mL.

B1: humanized 24-31 antibody, version 1 (#1 VL with #1 VH) (antibody, V domains shown)
VH: EVQLQESGPGLVKPSETLSLTCTVSGDSITNGFWIWIRKPPGNKLEYMGYISYSGSTYYNPSLKSRISISRDTSKNQFSLKLSSVTAADTGVYYCACRSYGRTPYYFDFWGQGTTLTVSS
VL: DIVMTQSPSFLSASVGDRVTITCKASQNVITAVAWYQQKPGKSPKLLIYSASNRYTGVPDRFSGSGSGTDFTLTISSLQPEDFADYFCQQYNSYPYTFGGGTKLEIK
notes: also called IDEC131
What is called Kd is the equilibrium constant for the complex coming apart. Molecule B1 gave a dissociation constant Kd in experiment [3] of 5.6 nM.

B2: murine antibody 24-31 (anti-human gp39 monoclonal antibody) (antibody, V domains shown)
VH: EVQLQESGPSLVKPSQTLSLTCSVTGDSITNGFWIWIRKFPGNKLEYMGYISYSGSTYYNPSLKSRISITRDTSQNQFYLQLNSVTTEDTGTYYCACRSYGRTPYYFDFWGQGTTLTVSS
VL: DIVMTQSQKFMSTSVGDRVSITCKASQNVITAVAWYQQKPGQSPKLLIYSASNRYTGVPDRFSGSGSGTDFTLTISNMQSEDLADYFCQQYNSYPYTFGGGTKLEIK
notes: also called murine 24-31; anti-gp39 24-31 mAb
Consider B2, for which the Kd in experiment [3] worked out at 8.51 nM.

B3: humanized 24-31 antibody, version 2 (#2 VL with #1 VH) (antibody, V domains shown)
VH: EVQLQESGPGLVKPSETLSLTCTVSGDSITNGFWIWIRKPPGNKLEYMGYISYSGSTYYNPSLKSRISISRDTSKNQFSLKLSSVTAADTGVYYCACRSYGRTPYYFDFWGQGTTLTVSS
VL: DIVMTQSPDSLAVSLGERATINCKASQNVITAVAWYQQKPGQSPKLLIYSASNRYTGVPDRFSGSGSGTDFTLTISSLQAEDVADYFCQQYNSYPYTFGGGTKLEIK
notes: Built in the N5KG1 vector (human kappa and gamma 1 constant regions); also called humanized 24-31 version 2; humanized Version 2
Take B3: the Kd in experiment [3] worked out at 14 nM.
